In patent publication US20220332804A1 (CSL INNOVATION, published 2022):

What was measured:
Test in all cases: SPR, antibody captured, C2 as analyte;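 also: biacore at 37 °C, anti-C2 mAbs held by immobilised goat anti-human IgG, C2 alanine or serine mutants injected, double-referenced sensorgrams fitted to a 1:1 kinetic or steady-state model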
human C2 S428A = target: T1, human C2 S428A (human, UniProt P06681 21-752)
T1 sequence: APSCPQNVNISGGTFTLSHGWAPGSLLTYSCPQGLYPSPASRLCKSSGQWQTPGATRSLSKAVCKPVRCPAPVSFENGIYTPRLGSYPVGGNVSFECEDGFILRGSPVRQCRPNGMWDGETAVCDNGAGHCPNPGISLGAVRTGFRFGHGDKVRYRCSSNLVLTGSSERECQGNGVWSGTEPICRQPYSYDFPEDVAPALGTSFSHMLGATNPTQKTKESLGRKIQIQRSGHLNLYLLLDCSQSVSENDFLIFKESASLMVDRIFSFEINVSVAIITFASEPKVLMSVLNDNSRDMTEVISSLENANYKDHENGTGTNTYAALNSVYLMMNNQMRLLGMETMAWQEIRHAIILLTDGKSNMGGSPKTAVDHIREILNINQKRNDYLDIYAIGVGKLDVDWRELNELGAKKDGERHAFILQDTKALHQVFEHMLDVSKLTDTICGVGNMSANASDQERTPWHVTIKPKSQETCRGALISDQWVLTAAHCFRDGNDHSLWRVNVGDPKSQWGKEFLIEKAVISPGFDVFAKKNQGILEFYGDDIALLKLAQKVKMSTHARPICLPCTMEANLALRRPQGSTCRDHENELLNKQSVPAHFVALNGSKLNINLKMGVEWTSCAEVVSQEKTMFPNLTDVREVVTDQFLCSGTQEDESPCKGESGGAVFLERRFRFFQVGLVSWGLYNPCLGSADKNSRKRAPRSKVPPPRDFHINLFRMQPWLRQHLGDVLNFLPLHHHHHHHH

human C2 S456A = target: T2, human C2 S456A (human, UniProt P06681 21-752)
T2 sequence: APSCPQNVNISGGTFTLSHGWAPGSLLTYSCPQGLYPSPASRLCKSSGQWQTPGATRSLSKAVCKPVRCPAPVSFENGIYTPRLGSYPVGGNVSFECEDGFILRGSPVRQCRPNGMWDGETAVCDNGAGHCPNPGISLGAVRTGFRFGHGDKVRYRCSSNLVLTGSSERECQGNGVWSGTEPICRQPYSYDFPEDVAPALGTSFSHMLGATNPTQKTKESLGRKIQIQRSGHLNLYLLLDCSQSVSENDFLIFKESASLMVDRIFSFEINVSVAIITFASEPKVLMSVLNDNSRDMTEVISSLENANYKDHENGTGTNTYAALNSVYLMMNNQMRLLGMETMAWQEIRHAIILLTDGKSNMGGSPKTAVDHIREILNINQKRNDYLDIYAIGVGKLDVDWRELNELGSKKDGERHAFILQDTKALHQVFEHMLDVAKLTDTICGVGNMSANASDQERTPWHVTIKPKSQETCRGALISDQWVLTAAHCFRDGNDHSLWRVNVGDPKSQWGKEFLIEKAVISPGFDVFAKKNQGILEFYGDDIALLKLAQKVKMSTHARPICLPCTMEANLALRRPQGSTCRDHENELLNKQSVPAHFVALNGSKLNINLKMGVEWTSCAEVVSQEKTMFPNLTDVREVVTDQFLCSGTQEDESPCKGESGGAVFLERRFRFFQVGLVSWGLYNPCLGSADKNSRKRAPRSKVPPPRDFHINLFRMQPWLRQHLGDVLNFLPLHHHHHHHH

human C2 F689A = target: T3, human C2 F689A (human, UniProt P06681 21-752)
T3 sequence: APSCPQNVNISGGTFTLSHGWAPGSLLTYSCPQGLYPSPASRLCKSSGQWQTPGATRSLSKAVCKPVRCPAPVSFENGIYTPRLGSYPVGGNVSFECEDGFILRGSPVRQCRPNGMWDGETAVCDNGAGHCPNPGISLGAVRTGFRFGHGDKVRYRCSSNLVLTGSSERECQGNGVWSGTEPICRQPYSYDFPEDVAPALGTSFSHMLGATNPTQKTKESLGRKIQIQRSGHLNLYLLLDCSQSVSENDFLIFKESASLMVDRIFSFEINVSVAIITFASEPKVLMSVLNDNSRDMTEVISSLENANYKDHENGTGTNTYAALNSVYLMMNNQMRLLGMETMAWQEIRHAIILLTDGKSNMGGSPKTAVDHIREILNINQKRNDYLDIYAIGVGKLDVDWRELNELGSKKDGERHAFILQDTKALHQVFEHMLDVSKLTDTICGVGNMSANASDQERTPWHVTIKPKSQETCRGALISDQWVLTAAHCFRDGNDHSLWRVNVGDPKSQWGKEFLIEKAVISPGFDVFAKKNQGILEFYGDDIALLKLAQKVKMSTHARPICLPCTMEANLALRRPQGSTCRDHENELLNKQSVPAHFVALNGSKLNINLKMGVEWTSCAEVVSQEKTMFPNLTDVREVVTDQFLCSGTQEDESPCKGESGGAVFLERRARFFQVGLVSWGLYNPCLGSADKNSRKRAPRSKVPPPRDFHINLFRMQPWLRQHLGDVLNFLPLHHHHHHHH

human C2 F437A = target: T4, human C2 F437A (human, UniProt P06681 21-752)
T4 sequence: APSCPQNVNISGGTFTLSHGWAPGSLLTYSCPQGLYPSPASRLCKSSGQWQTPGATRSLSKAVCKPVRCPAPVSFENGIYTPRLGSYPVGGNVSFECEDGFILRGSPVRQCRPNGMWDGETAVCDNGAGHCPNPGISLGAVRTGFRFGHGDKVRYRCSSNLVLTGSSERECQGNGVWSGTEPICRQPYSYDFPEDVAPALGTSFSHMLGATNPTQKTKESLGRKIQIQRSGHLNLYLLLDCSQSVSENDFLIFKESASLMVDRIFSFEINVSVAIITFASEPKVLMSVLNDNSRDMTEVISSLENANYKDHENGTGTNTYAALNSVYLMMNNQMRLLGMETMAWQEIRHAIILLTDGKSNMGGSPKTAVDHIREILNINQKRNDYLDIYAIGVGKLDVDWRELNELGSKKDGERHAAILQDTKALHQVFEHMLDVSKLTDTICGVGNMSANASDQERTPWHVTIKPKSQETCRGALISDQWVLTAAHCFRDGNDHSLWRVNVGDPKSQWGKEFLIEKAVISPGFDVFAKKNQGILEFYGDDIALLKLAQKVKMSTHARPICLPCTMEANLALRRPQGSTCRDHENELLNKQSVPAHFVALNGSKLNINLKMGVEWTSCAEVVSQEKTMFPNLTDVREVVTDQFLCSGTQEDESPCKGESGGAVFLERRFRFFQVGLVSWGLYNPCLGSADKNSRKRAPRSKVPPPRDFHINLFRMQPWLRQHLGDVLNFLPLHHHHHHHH

B1: RF16-242 (antibody, human IgG4 S228P, lambda, V domains shown)
VH: EVQLLQSGAEVKKPGESLKISCKGSGYSFTSYWIGWVRQMPGKGLEWMGIIYPGDSDTRYSPSFQGQVTISADKSISTAYLQWSSLKASDTAMYYCARRGHYGDYFDYWGQGTLVTVSS
VL: SYELTQPPSVSVSPGQTARITCSGDALPKKYAYWYHQKSGQAPVLVIYEDRRRPSEIPERFSGSSSGTMATLTITGAQVEDEGVYFCYSRDRAGNQRVFGGGTQLTVLG
notes: pH-dependent anti-C2 antibody from a phage display library
- Kd (human C2 S428A): 18.6 nM
- Kd (human C2 S456A): 59.8 nM
- Kd (human C2 F689A): 6.3 nM
- Kd (human C2 F437A): 107 nM
